B1: HDV Ribozyme (parent)
chain: GGCCGGCAUGGUCCCAGCCUCCUCGCUGGCGCCGGCUGGGCAACAUUCCGAGGGGACCGUCCCCUCGGUAAUGGCGAAUGGGACCCA

Variants of: B1
Experiment: self-cleavage, relative activity (ratio to wild type); higher = more cleavage; co-transcriptional

| Variant | self-cleavage |
| --- | --- |
| G53U C84A | 0.754 |
| G52C A70G | 0.702 |
| G52U A70C | 0.577 |
| G52U A70U | 0.831 |
| A51C G54C | 0.787 |
| G50U C86A | 0.727 |
| A51C C84G | 0.536 |
| A51C C84U | 0.831 |
| G50U U65C | 0.791 |
| G50U U65A | 0.981 |
| G52U C63A | 0.806 |
| G50C A87U | 1.15 |
| G50C A87C | 0.95 |
| G50C A87G | 0.974 |
| G53U C57A | 0.944 |
| G53C G59A | 0.95 |
| G53C G59C | 0.958 |
| G50A U69C | 0.688 |
| G52U U60A | 1.05 |
| G52U U60G | 0.978 |
| G53U G55A | 1.18 |
| G50C G54C | 0.32 |
| A51C A78C | 0.277 |
| G50U C85U | 1.02 |

| Variant | self-cleavage |
| --- | --- |
| G53A C86U | 0.881 |
| G54C A83U | 0.631 |
| G53A C84U | 0.777 |
| G54A G68C | 0.173 |
| G52C G74U | 0.312 |
| A51C U79C | 0.447 |
| G52C G76A | 0.976 |
| G54A G67U | 0.657 |
| G52C G54U | 0.513 |
| A51G C62U | 1.01 |
| A51G U65C | 1.26 |
| A51C U65C | 0.942 |
| G54A C85U | 0.808 |
| G54A C85A | 0.917 |
| G52U G67U | 0.205 |
| G53C C86A | 0.866 |
| A51C G68A | 0.916 |
| A51C G68C | 0.762 |
| G50C G82A | 0.364 |
| G50C G82C | 0.383 |
| G50C G82U | 0.217 |
| G50A G76U | 1.01 |
| G53U G80C | 0.304 |
| G53U G80U | 0.256 |

| Variant | self-cleavage |
| --- | --- |
| G53U G80A | 0.419 |
| G50U U69C | 0.962 |
| G53U C75A | 0.117 |
| G50A U65A | 1.02 |
| A51G G81C | 0.266 |
| G50A C57A | 0.972 |
| G50A C57U | 1 |
| G54A G59C | 1.07 |
| G54A G59A | 1.01 |
| G53A G82U | 0.359 |
| G53A G82C | 0.246 |
| G50U G73A | 0.634 |
| A51G C75U | 0.217 |
| A51C U72C | 0.475 |
| A51C C57A | 1.02 |
| G50U U60G | 0.831 |
| G54A U60G | 1.03 |
| G50A C86A | 0.931 |
| G50A C86U | 1.06 |
| G53A C58G | 0.935 |
| G50U C84U | 0.665 |
| G53U C66A | 0.937 |
| G53C U69G | 1.14 |
| G53C U69C | 1.01 |

| Variant | self-cleavage |
| --- | --- |
| G53U G81A | 0.445 |
| A51U C66U | 1.07 |
| A51U C62A | 0.759 |
| G50U A51C | 0.889 |
| G52A A71C | 0.744 |
| G53U A77G | 0.8 |
| G53A C85G | 0.923 |
| G52A C86A | 0.9 |
| A51C G59U | 0.762 |
| A51C G59C | 0.807 |
| G50A G81A | 0.415 |
| G50A G81U | 0.281 |
| G50A G81C | 0.225 |
| G52C C58A | 0.796 |
| A51U G81C | 0.407 |
| G52C C75A | 0.153 |
| G52C U60G | 0.944 |
| G52C U60A | 1.02 |
| G52U A77U | 0.743 |
| G54A C63A | 0.831 |
| G52C C64U | 0.964 |
| G54C A78U | 0.324 |
| G54C A78C | 0.191 |
| G54C A78G | 0.507 |

| Variant | self-cleavage |
| --- | --- |
| A51C G53C | 0.196 |
| G50A C61G | 0.91 |
| A51U G53A | 0.927 |
| G52A G54U | 0.815 |
| G52A G54A | 0.9 |
| G50U A77C | 0.499 |
| G50U G54U | 0.668 |
| G52C G82A | 0.712 |
| G52A C57A | 0.963 |
| G52C C62U | 0.987 |
| A51G A56C | 0.733 |
| A51G A56U | 1 |
| G52A G81U | 0.244 |
| G50C G81C | 0.125 |
| G53C U65C | 0.772 |
| G53C U65A | 0.629 |
| G53A C66A | 0.794 |
| A51C G55A | 0.873 |
| G53C A56C | 1.14 |
| G53C A56U | 1.11 |
| G53U U65C | 0.819 |
| A51G G68C | 0.831 |
| A51G G68A | 0.901 |
| G53C C62G | 1.01 |

| Variant | self-cleavage |
| --- | --- |
| G53C A87C | 1.01 |
| A51G G67U | 0.65 |
| G54A A77C | 0.383 |
| G50C A83C | 0.317 |
| A51G A83C | 0.199 |
| A51G A77C | 0.322 |
| A51G A77U | 0.682 |
| G52C C61G | 0.886 |
| G50A A78G | 0.923 |
| A51G C63A | 0.734 |
| A51U U79C | 0.49 |
| A51U U79A | 1.09 |
| G50A C75G | 0.0852 |
| G50C U72C | 0.494 |
| A51U G74A | 0.288 |
| G54A A87C | 1.06 |
| G52C A56G | 0.851 |
| G52C A56U | 1.12 |
| G52C A56C | 0.95 |
| G53A G76A | 1.16 |
| G53A G76U | 1.11 |
| A51C G80C | 0.0437 |
| G52U G81U | 0.429 |
| G50U C58U | 0.909 |

| Variant | self-cleavage |
| --- | --- |
| G54A U72C | 0.61 |
| G54A U72G | 0.453 |
| G50A A87G | 1.01 |
| G53A C61G | 0.751 |
| A51G C58G | 0.969 |
| G53C G76A | 0.882 |
| G53C G76C | 0.991 |
| A51G A78U | 0.156 |
| G54A G80A | 0.443 |
| G52U U69C | 0.831 |
| G52U U69A | 1.09 |
| G50A G55U | 1.11 |
| G53U G76A | 1.09 |
| A51U C63U | 0.88 |
| A51U G54A | 0.973 |
| G52C A78U | 0.315 |
| G52C A78G | 0.787 |
| G50C C61A | 0.865 |
| G50C U69A | 0.831 |
| G50C U69G | 1.05 |
| A51G C86G | 0.702 |
| A51U U65G | 1.3 |
| G50A G52U | 0.688 |

From the RNAGym collection of RNA variant scans (doi:10.7554/elife.80360)
